In US20240067751A1 (KEYMED BIOSCIENCES, published 2024):
Residue numbers refer to the chain shown, from its start. Each block holds one binder with its values, some of them ahead of it.

Columns and labels:
[1] = molecular target: T1, human MASP-2 D4-6 recombinant protein (human, UniProt O00187 298-686); test: ELISA, antigen coated, chimeric IgG titrated, anti-human Fc-HRP
T1 construct: his6 tag fused at the N-terminus, made in HEK293E; also called enzymatic activity domains CCP1-CCP2-SP of human MASP-2

[2] = molecular target: T2, Cynomolgus monkey MASP-2 D4-6 recombinant protein (Cynomolgus monkey, UniProt O00187 298-686 (human entry), limits assumed); test: as above
T2 construct: Made 'similarly' to the human protein (N-terminal his6 tag)

[3] = molecular target: T3, mouse MASP-2 D4-6 recombinant protein (mouse, UniProt Q91WP0 298-685); test: as above
T3 construct: Made 'similarly' to the human protein (N-terminal his6 tag)

[4] = molecular target: T4, rat MASP-2 D4-6 recombinant protein (rat, UniProt Q9JJS8 298-685); test: as above
T4 construct: Made 'similarly' to the human protein (N-terminal his6 tag)

[5] = molecular target: T1, human MASP-2 D4-6 recombinant protein; test: SPR Biacore T200, antibody on Protein A chip, antigen as analyte, 1:1 fit
Description: (§1) Surface plasmon resonance technology (SPR/Biacore T200) was used to capture 0.1 μg/ml of the antibody on the surface of the Protein A chip, with a capture time of 40 seconds and a flow rate of 10 μl/min. The chip was washed with buffer until the baseline leveled off, then gradient-diluted antigen was flowed through the chip at the flow rate of 30 μl/min, with a binding time of 120 sec and a dissociation time of 600 sec. The equilibrium dissociation constant (KD) was obtained by fitting in Langmuir 1:1 kinetics mode.

[6] = molecular target: T2, Cynomolgus monkey MASP-2 D4-6 …; test: as above
Description: as §1

[7] = molecular target: T3, mouse MASP-2 D4-6 recombinant protein; test: as above
Description: as §1

MASP-2 in human serum [8] = molecular target: T5, MASP-2 in human serum (human, UniProt O00187 16-686); test: cell-based or functional assay
MASP-2 in human serum [9] = molecular target: T5, MASP-2 in human serum; test: cell-based or functional assay; remark: listed apart in the source

T1 sequence (O00187 other isoform, or with tags, fused parts or gaps limits assumed): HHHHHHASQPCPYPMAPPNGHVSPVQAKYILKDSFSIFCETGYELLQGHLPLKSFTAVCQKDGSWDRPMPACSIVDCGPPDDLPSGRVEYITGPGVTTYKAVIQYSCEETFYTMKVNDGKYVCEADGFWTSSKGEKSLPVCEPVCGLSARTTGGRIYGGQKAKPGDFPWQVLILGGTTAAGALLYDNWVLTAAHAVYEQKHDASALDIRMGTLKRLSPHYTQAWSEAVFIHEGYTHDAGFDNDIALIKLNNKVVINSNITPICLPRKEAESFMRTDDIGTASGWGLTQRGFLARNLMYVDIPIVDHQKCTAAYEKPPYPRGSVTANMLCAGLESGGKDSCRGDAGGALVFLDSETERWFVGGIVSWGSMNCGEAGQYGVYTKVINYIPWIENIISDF
T2 sequence (O00187 other isoform, or with tags, fused parts or gaps limits assumed): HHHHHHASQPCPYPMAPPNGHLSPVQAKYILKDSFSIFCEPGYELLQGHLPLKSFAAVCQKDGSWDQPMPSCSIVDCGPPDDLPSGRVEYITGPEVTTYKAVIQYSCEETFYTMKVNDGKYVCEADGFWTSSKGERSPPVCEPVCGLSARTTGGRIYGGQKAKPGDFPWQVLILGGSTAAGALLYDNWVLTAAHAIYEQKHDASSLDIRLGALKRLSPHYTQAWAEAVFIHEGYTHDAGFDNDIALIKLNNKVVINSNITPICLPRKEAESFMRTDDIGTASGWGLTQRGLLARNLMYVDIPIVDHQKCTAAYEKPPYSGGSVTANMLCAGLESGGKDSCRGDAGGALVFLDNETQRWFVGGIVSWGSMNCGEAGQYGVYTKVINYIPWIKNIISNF
T3 sequence (Q91WP0 other isoform, or with tags, fused parts or gaps limits assumed): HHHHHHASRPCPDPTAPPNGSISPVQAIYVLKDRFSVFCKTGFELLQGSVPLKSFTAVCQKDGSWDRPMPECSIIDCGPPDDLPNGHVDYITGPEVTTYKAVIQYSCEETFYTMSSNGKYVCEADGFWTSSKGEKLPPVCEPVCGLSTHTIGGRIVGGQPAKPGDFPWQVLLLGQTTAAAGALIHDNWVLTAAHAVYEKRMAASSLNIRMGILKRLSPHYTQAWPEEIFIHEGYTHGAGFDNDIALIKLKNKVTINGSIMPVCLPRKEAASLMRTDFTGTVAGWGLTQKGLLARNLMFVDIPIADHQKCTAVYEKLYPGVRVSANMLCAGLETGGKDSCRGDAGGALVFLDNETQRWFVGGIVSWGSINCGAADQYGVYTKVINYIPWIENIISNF
T5 sequence (O00187 16-686 limits assumed): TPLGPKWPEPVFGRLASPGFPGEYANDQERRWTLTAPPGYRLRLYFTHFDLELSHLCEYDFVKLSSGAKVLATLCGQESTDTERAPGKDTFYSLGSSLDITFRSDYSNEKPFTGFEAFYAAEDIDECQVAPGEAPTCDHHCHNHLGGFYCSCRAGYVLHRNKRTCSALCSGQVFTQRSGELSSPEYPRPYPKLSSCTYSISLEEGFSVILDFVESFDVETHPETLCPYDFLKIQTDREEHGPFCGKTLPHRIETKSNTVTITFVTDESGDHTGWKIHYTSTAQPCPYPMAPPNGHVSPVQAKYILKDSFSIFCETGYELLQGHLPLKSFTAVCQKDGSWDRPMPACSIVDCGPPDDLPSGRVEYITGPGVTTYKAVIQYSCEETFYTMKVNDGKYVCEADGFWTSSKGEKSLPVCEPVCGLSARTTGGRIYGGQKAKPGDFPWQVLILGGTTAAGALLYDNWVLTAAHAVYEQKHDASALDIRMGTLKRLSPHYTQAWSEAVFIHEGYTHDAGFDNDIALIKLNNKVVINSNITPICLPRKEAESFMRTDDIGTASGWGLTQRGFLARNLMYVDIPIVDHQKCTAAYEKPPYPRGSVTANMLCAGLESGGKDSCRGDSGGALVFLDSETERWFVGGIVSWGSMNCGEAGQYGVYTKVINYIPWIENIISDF
T4 sequence (Q9JJS8 other isoform, or with tags, fused parts or gaps limits assumed): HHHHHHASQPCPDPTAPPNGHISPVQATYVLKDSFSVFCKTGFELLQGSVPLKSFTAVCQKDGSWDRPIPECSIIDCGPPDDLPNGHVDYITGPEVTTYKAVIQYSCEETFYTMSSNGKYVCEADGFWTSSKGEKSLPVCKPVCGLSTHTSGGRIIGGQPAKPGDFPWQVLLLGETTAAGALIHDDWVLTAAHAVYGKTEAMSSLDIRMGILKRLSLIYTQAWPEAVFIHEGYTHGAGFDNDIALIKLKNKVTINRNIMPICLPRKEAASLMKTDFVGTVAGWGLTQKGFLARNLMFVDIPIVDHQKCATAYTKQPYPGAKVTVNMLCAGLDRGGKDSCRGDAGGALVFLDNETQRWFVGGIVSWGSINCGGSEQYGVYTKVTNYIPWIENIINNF

B1: chimeric antibody 1B2 (antibody, V domains shown)
VH: DVQLQESGPGLVKPSQSLSLTCTVTGYSITSDYAWNWIRQFSGDKLEWMGYISYSGSTSYNPSLKSRISITRDTSKNQFFLHLSSVTTEDTATYFCARYWGDYWGHGTTLTVSS
VL: DSVMTQSQKFMSTSVGDRVSVTCKASHNVGTNVAWFQQKPGQSPKGLIYSASYRSSGVPDRFTGSGSGTDFTLTISNVQSEDLAEYFCLQYNSNPLTFGGGTKLEVK
EC50 [1]: 15 pM
EC50 [2]: 14 pM
EC50 [3]: 947 pM
EC50 [4]: 1440 pM
Kd [5]: 2 pM
Kd [6]: 78 pM
Kd [7]: 632000 pM

B2: h16B11 H1K1 (antibody, V domains shown)
VH: QMQLQESGPGLVKPSETLSLTCTVSGYSITSDYAWNWIRQPPGKGLEWIGYISYSGRTSYNPSLKSRVTISRDTSKNQFSLKLSSVTAADTAVYYCARHYGDYWGQGTLVTVSS
VL: DIQMTQSPSSLSASVGDRVTITCRASQNVGTNVAWYQQKPGKAPKALIYSASYRESGVPSRFSGSGSGTDFTLTISSLQPEDFATYFCQQFNTNPLTFGGGTKVEIK
IC50, inhibition of C4b deposition (MASP-2 in human serum [8]): 20 pM
IC50, inhibition of C3b deposition (MASP-2 in human serum [9]): 14 pM

B5: h16B11 H2K1 (antibody, V domains shown)
VH: B2 VH with M2L
VL: B2 VL
IC50, inhibition of C4b deposition (MASP-2 in human serum [8]): 20 pM
IC50, inhibition of C3b deposition (MASP-2 in human serum [9]): 17 pM

B7: h16B11 H1K6 (antibody, V domains shown)
VH: B2 VH
VL: EIVMTQSPATLSVSPGERATLSCRASQNVGTNVAWYQQKPGQAPRALIYSASYRQSGIPARFSGSGSGTEFTLTISSLQSEDFAVYFCQQFNTNPLTFGGGTKVEIK
IC50, inhibition of C3b deposition (MASP-2 in human serum [9]): 18 pM

B9: h16B11 H1K4 (antibody, V domains shown)
VH: B2 VH
VL: B7 VL with Q55E
IC50, inhibition of C3b deposition (MASP-2 in human serum [9]): 15 pM

B10: h16B11 H2K3 (antibody, V domains shown)
VH: B2 VH with M2L
VL: B2 VL with E55Q
IC50, inhibition of C4b deposition (MASP-2 in human serum [8]): 12 pM
IC50, inhibition of C3b deposition (MASP-2 in human serum [9]): 18 pM

B12: h16B11 H1K3 (antibody, V domains shown)
VH: B2 VH
VL: B2 VL with E55Q
IC50, inhibition of C4b deposition (MASP-2 in human serum [8]): 21 pM
IC50, inhibition of C3b deposition (MASP-2 in human serum [9]): 23 pM

B15: h16B11 H2K4 (antibody, V domains shown)
VH: B2 VH with M2L
VL: B7 VL with Q55E
IC50, inhibition of C3b deposition (MASP-2 in human serum [9]): 15 pM

B16: h16B11 H1K5 (antibody, V domains shown)
VH: B2 VH
VL: B7 VL with A46L, Q55E
IC50, inhibition of C3b deposition (MASP-2 in human serum [9]): 24 pM

B17: h3H6 H1K1 (antibody, V domains shown)
VH: QVQLVQSGAEVKKPGSSVKVSCKASGYTFATYSIHWVRQAPGQGLEWMGYINPSSGYTNYNQKFQGRVTLTADKSTSTAYMELSSLRSEDTAVYYCARVYYTFYHAMDYWGQGTTVTVSS
VL: DIQMTQSPSSLSASVGDRVTITCRASQDVNTAVAWYQQKPGKAPKLLIYSASYRYTGVPSRFSGSGSGTDFTLTISSLQPEDFATYYCQQHYNIPLTFGGGTKVEIK
IC50, inhibition of C4b deposition (MASP-2 in human serum [8]): 14 pM
IC50, inhibition of C3b deposition (MASP-2 in human serum [9]): 30 pM

B21: h3H6 H4K1 (antibody, V domains shown)
VH: B17 VH with L70I, K74E
VL: B17 VL
IC50, inhibition of C4b deposition (MASP-2 in human serum [8]): 90 pM
IC50, inhibition of C3b deposition (MASP-2 in human serum [9]): 151 pM

B23: h16B11 H1K2 (antibody, V domains shown)
VH: B2 VH
VL: B2 VL with A46L
IC50, inhibition of C4b deposition (MASP-2 in human serum [8]): 51 pM
IC50, inhibition of C3b deposition (MASP-2 in human serum [9]): 40 pM

B25: h3H6 H3K1 (antibody, V domains shown)
VH: B17 VH with L70I
VL: B17 VL
IC50, inhibition of C4b deposition (MASP-2 in human serum [8]): 17 pM
IC50, inhibition of C3b deposition (MASP-2 in human serum [9]): 34 pM

B26: h16B11 H2K2 (antibody, V domains shown)
VH: B2 VH with M2L
VL: B2 VL with A46L
IC50, inhibition of C4b deposition (MASP-2 in human serum [8]): 32 pM
IC50, inhibition of C3b deposition (MASP-2 in human serum [9]): 28 pM

B27: h3H6 H2K1 (antibody, V domains shown)
VH: B17 VH with K74E
VL: B17 VL
IC50, inhibition of C4b deposition (MASP-2 in human serum [8]): 86 pM
IC50, inhibition of C3b deposition (MASP-2 in human serum [9]): 151 pM

B28: chimeric antibody 4F18 (antibody, V domains shown)
VH: EVQLQESGPGLVKPSQSLSLACTVTGYSITSDYAWHWIRQFPGNKLEWMGFISYSGRTNYNPPLTSRISITRDTSKNQFFLQLNSVTTEDTATYYCARSYDYWFGYWGQGTLVTVSA
VL: NVLMTQTPLSLPVSLGDQASISCRSSQSLVHSNGNTYLEWYMQKPGQSPKLLIYTVSRRFSGVPDRFSGSGSGTDFTLKISRVEAEDLGVYYCFQGSHVPVTFGAGTKLELK
notes: to be rechecked
EC50 [1]: 4 pM
EC50 [2]: 3 pM
EC50 [3]: 287 pM
Kd [5]: 108 pM
Kd [6]: 24800 pM
Kd [7]: 218000 pM

Now from value to binder:

IC50, inhibition of C4b deposition (MASP-2 in human serum [8]): 98 pM
IC50, inhibition of C3b deposition (MASP-2 in human serum [9]): 60 pM
B3: h16B11 H3K1 (antibody, V domains shown)
VH: B2 VH with M2L, R72V
VL: B2 VL

IC50, inhibition of C3b deposition (MASP-2 in human serum [9]): 71 pM
B4: h16B11 H3K6 (antibody, V domains shown)
VH: B2 VH with M2L, R72V
VL: B7 VL

IC50, inhibition of C3b deposition (MASP-2 in human serum [9]): 440 pM
B6: h16B11 H3K5 (antibody, V domains shown)
VH: B2 VH with M2L, R72V
VL: B7 VL with A46L, Q55E

IC50, inhibition of C3b deposition (MASP-2 in human serum [9]): 52 pM
B8: h16B11 H3K4 (antibody, V domains shown)
VH: B2 VH with M2L, R72V
VL: B7 VL with Q55E

IC50, inhibition of C3b deposition (MASP-2 in human serum [9]): 32 pM
B11: h16B11 H2K5 (antibody, V domains shown)
VH: B2 VH with M2L
VL: B7 VL with A46L, Q55E

IC50, inhibition of C4b deposition (MASP-2 in human serum [8]): 440 pM
IC50, inhibition of C3b deposition (MASP-2 in human serum [9]): 112 pM
B13: h16B11 H3K3 (antibody, V domains shown)
VH: B2 VH with M2L, R72V
VL: B2 VL with E55Q

IC50, inhibition of C3b deposition (MASP-2 in human serum [9]): 18 pM
B14: h16B11 H2K6 (antibody, V domains shown)
VH: B2 VH with M2L
VL: B7 VL

IC50, inhibition of C4b deposition (MASP-2 in human serum [8]): 338 pM
IC50, inhibition of C3b deposition (MASP-2 in human serum [9]): 506 pM
B18: h28O14 H4K1 (antibody, V domains shown)
VH: QVQLVQSGAEVKKPGSSVKVSCKASGYTFRSHTMHWVRQAPGQGLEWMGYINPSTGYINYNQKFQGRVTITADESTSTAYMELSSLRSEDTAVYYCARSNYAYYYGMDYWGQGTTVTVSS
VL: B17 VL

IC50, inhibition of C4b deposition (MASP-2 in human serum [8]): 324 pM
IC50, inhibition of C3b deposition (MASP-2 in human serum [9]): 483 pM
B19: h28O14 H2K1 (antibody, V domains shown)
VH: B18 VH with I70L
VL: B17 VL

IC50, inhibition of C4b deposition (MASP-2 in human serum [8]): 64 pM
IC50, inhibition of C3b deposition (MASP-2 in human serum [9]): 161 pM
B20: h28O14 H3K1 (antibody, V domains shown)
VH: B18 VH with E74K
VL: B17 VL

IC50, inhibition of C4b deposition (MASP-2 in human serum [8]): 1690 pM
IC50, inhibition of C3b deposition (MASP-2 in human serum [9]): 399 pM
B22: h16B11 H3K2 (antibody, V domains shown)
VH: B2 VH with M2L, R72V
VL: B2 VL with A46L

IC50, inhibition of C4b deposition (MASP-2 in human serum [8]): 83 pM
IC50, inhibition of C3b deposition (MASP-2 in human serum [9]): 146 pM
B24: h28O14 H1K1 (antibody, V domains shown)
VH: B18 VH with I70L, E74K
VL: B17 VL
